A word on the Kd: it is the free concentration of one partner at which half of the binding sites on the other are occupied at equilibrium, for simple one-to-one binding.

This data set has as its target SMAD4 (rSMAD4) (UniProt Q13485 1-552). Description: MST; 100 nM aptamer; FAM label inferred for MST; MST: 20 mM Tris-HCl pH 7.4, 5 mM KCl, 500 mM NaCl, temperature not stated; pull-down: plasma diluted twice with 10 mM Tris-HCl pH 7.4, 150 mM NaCl plus 0.85 M NaCl, RT, 30 min. Particulars: protein: recombinant; tags: N-terminal His6; label: 3'-FAM; hairpin, 16 bp stem, TTTT loop, 3' A5 tail.

Chain of SMAD4 (rSMAD4) (Q13485 whole entry): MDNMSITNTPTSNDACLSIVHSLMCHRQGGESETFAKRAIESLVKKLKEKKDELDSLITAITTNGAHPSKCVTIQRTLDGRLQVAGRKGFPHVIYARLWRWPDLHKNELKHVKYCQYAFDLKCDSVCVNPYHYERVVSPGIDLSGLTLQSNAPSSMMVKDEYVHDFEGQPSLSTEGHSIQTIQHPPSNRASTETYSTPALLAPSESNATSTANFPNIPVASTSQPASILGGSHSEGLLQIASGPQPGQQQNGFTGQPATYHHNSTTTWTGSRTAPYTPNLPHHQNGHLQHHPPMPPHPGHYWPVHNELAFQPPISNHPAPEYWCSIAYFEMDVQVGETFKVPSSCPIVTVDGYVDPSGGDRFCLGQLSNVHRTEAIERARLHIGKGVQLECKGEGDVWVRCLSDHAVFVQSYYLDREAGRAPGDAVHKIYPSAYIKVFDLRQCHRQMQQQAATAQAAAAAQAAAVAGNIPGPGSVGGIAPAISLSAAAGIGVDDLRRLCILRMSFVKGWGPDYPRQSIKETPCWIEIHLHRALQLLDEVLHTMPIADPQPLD

With CGAAGTCTAGACAGCGTTTTCGCTGTCTAGACTTCGAAAAA (structured_DNA) [Anti-SMAD4 aptamer, 3'-FAM], the Kd came to 45 ± 7 nM.

The values above are taken from paper PMC7277749, “Evaluation of Aptamers as Affinity Reagents for an Enhancement of SRM-Based Detection of Low-Abundance Proteins in Blood Plasma”.
